{"source": "paper doi:10.1101/2025.09.04.674342", "about": "“Tandem association of CLOCK:BMAL1 complexes on DNA enables recruitment of CBP/p300 through multivalent interactions” (bioRxiv, 2025)", "binders": {"B1": {"name": "BMAL1 TAD (residues 579–626) (domain or fragment)", "chain": "not shown", "notes": "numbers count on: isoform Q9WTL8-4; Used at natural abundance or uniformly 15N-labelled; also called 15N BMAL1 TAD; source: E. coli Rosetta (DE3), purified (Ni-NTA, TEV cleavage, Superdex 75); not shown: His6-NusA-XL (HNXL), N-terminal, cleaved"}, "B2": {"name": "trans-locked BMAL1 switch peptide P625A (FSDLPWAL) (peptide)", "peptide": "FSDLPWAL", "notes": "numbers count on: isoform Q9WTL8-4; All trans; also called P625A switch; trans-locked switch; source: synthetic peptide (solid phase, Fmoc chemistry; C18 HPLC)"}, "B3": {"name": "BMAL1 linker-switch peptide (residues 613–626) (peptide, UniProt Q9WTL8-4 613-626, looked up)", "peptide": "LGGPVDFSDLPWPL", "notes": "BMAL1, mouse, residues 613–626 (linker and switch of the TAD); numbers count on: isoform Q9WTL8-4; source: synthetic peptide (Pierce, 95% purity)"}, "B4": {"name": "[5,6] TAMRA-labeled BMAL1 minimal TAD peptide (residues 594–626), WT (peptide)", "peptide": "not shown", "modifications": "5,6-TAMRA on the N-terminus; free carboxyl C-terminus", "notes": "BMAL1 minimal TAD with helix and switch regions, residues 594–626; numbers count on: isoform Q9WTL8-4; also called [5,6]; TAMRA-BMAL1 TAD probe; native TAD probe; source: synthetic peptide (Bio-Synthesis, 95% purity)"}, "B5": {"name": "CBP KIX domain (residues 586–672) (domain or fragment)", "chain": "not shown", "notes": "CBP KIX domain, mouse, UniProt P45481, residues 586–672; tagless; Plasmid was a gift from Peter Wright; Used at natural abundance or uniformly 15N-labelled; also called WT KIX; 15N CBP KIX; source: E. coli Rosetta (DE3), purified (Ni-NTA through native histidines, size exclusion)"}, "B6": {"name": "BMAL1 TAD L606A/L607A (residues 579–626) (domain or fragment)", "chain": "not shown", "notes": "numbers count on: isoform Q9WTL8-4; Used at natural abundance or 15N-labelled; also called L606A/L607A TAD mutant; 15N BMAL1 TAD L606A/L607A; source: E. coli Rosetta (DE3), purified (Ni-NTA, TEV cleavage, Superdex 75); not shown: His6-NusA-XL (HNXL), N-terminal, cleaved"}, "B7": {"name": "CLOCK:BMAL1 bHLH-PAS-AB heterodimer (complex)", "chain 1": "VEEDDKDKAKRVSRNKSEKKRRDQFNVLIKELGSMLPGNARKMDKSTVLQKSIDFLRKHKETTAQSDASEIRQDWKPTFLSNEEFTQLMLEALDGFFLAIMTDGSIIYVSESVTSLLEHLPSDLVDQSIFNFIPEGEHSEVYKILSTHLLESDSLTPEYLKSKNQLEFCCHMLRGTIDPKEPSTYEYVRFIGNFKSLTSVSTSTHNGFEGTIQRTHRPSYEDRVCFVATVRLATPQFIKEMCTVEEPNEEFTSRHSLEWKFLFLDHRAPPIIGYLPFEVLGTSGYDYYHVDDLENLAKCHEHLMQYGKGKSCYYRFLTKGQQWIWLQTHYYITYHQWNSRPEFIVCTHTVVSYAEVRAERRRELGIEESL", "chain 2": "not shown", "notes": "CLOCK bHLH PAS-AB, mouse, UniProtKB O08785, residues 26–395; BMAL1 bHLH PAS-AB, mouse, UniProtKB Q9WTL8-4, residues 62–441; numbers count on: isoform Q9WTL8-4; Purified on Ni-NTA and cleaved with His-TEV; also called CLOCK:BMAL1 protomer; source: insect cells (Spodoptera frugiperda or Hi5), purified (Ni-NTA, TEV cleavage, heparin, Superdex 200); copies: 1 + 1"}, "B8": {"name": "CBP TAZ2 domain (residues 1764–1855; C1776A, C1784A, C1827A, C1828A) (domain or fragment, mouse, UniProt P45481 1764-1855, looked up)", "chain": "SPQESRRLSIQRAIQSLVHAAQCRNANCSLPSCQKMKRVVQHTKGCKRKTNGGCPVCKQLIALAAYHAKHCQENKCPVPFCLNIKHKLRQQQ", "notes": "CBP TAZ2 domain, mouse, UniProt P45481, residues 1764–1855, with four cysteine to alanine mutations that increase solubility and stability; source: E. coli (BL21), purified (amylose sepharose, S-sepharose, Superdex 75)"}}, "key": {"[1]": {"target": "B8", "assay": "NMR titration; 15N-1H HSQC of 100 μM 15N BMAL1 TAD WT or L606A/L607A with stepwise additions of CBP KIX (WT or 3mut), TAZ1 or TAZ2; 25°C; 10 mM MES pH 6.5, 50 mM NaCl, 10% D2O; KD from fits of concentration-dependent CSPs, apparent", "conditions": "both partners purified"}, "[2]": {"target": "B5", "assay": "ITC; 220–230 μM CBP KIX WT or 3mut titrated into 20–25 μM BMAL1 TAD WT or L606A/L607A; 25°C; 10 mM MES pH 6.5, 50 mM NaCl; one-site model", "conditions": "both partners purified"}, "[3]": {"target": "B5", "assay": "NMR titration; 15N-1H HSQC of 100 μM 15N CBP KIX with stepwise additions of natural abundance BMAL1 TAD or truncated peptides; 25°C; 10 mM MES pH 6.5, 50 mM NaCl, 10% D2O", "conditions": "both partners purified"}, "[4]": {"target": "B8", "assay": "fluorescence polarisation; CBP KIX, TAZ1 or TAZ2 titrated onto [5,6] TAMRA-labeled BMAL1 minimal TAD probes (25 nM in the legend, 50 nM in the methods); 10 mM MES pH 6.5, 50 mM NaCl, 0.05% Tween-20; room temperature; one-site specific binding with Hill coefficient; apparent KDs", "conditions": "both partners purified"}, "[5]": {"target": "B1", "assay": "ITC; 220–230 μM CBP KIX WT or 3mut titrated into 20–25 μM BMAL1 TAD WT or L606A/L607A; 25°C; 10 mM MES pH 6.5, 50 mM NaCl; one-site model", "conditions": "both partners purified"}, "[6]": {"target": "the molecule itself", "assay": "cryo-EM structure; two CLOCK:BMAL1 bHLH-PAS-AB protomers on a nucleosome with tandem E-boxes 6 bp apart (SHL +3.9/+5.1); GraFix glutaraldehyde cross-linked; 4.1 Å overall, 8–12 Å in the PAS region"}, "[7]": {"target": "B4", "assay": "fluorescence polarisation; CBP KIX, TAZ1 or TAZ2 titrated onto [5,6] TAMRA-labeled BMAL1 minimal TAD probes (25 nM in the legend, 50 nM in the methods); 10 mM MES pH 6.5, 50 mM NaCl, 0.05% Tween-20; room temperature; one-site specific binding with Hill coefficient; apparent KDs", "conditions": "both partners purified"}}}
{"binder": "B1", "values": [{"measurement": "binding result", "setting": "[1]", "result": "binds"}, {"measurement": "Kd", "setting": "[2]", "result": "~2000", "unit": "nM"}]}
{"binder": "B2", "values": [{"measurement": "binding result", "setting": "[3]", "result": "binds"}]}
{"binder": "B3", "values": [{"measurement": "binding result", "setting": "[3]", "result": "binds"}]}
{"binder": "B4", "values": [{"measurement": "binding result", "setting": "[4]", "result": "binds"}]}
{"binder": "B5", "values": [{"measurement": "stoichiometry N", "setting": "[5]", "result": "0.8 to 1.1"}]}
{"binder": "B6", "values": [{"measurement": "binding result", "setting": "[1]", "result": "binds"}]}
{"binder": "B7", "values": [{"measurement": "binding result", "setting": "[6]", "result": "binds"}]}
{"binder": "B8", "values": [{"measurement": "fold lower affinity than TAZ1", "setting": "[7]", "result": "~20", "unit": "fold"}]}
